The results in this text go back to patent US20070185028A1, “Compositions and methods for treatment of protein misfolding and protein aggregation diseases” (priority 2004, published 2007).

Common to all, as to assay type: binding
In experiment [1] the target is T1, porcine citrate synthase (CS) (Sus scrofa, UniProt P00889).
T1 construct: purchased Roche Diagnostics, IN 103 381
T1 sequence (P00889 28-464): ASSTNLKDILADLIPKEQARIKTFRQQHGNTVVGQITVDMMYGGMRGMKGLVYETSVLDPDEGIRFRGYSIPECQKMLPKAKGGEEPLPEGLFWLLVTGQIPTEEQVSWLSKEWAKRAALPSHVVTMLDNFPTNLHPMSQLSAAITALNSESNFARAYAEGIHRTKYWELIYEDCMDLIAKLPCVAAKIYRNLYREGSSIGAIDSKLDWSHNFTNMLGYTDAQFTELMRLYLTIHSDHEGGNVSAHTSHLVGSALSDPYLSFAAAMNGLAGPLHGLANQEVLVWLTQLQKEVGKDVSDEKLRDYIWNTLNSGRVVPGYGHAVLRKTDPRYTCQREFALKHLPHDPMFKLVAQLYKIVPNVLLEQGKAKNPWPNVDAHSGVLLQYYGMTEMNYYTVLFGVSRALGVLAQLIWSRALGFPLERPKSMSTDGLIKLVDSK
Kind of experiment: αB crystallin protein pin array with citrate synthase. The settings on record: CS as target protein in the pin array. The text has this: (§1) Synthesis of Pins, binding and detection of peptides binding to ligand proteins. The αB crystallin protein pin array was used to measure the interaction between peptides and chaperone target proteins including bovine βH crystallin, human γD crystallin, equine alcohol dehydrogenase (ADH) and porcine citrate synthase (CS) as described (FIG. 12). Ghosh and Clark, Protein Sci 14: 684-95, 2005.
(§2) Refer to the methods section for detailed protocols. The absorbance corresponding to the blue coloration in each well was measured at λ=450 nm and plotted against the amino acid sequence of the corresponding peptide in that well (FIGS. 13 and 14). Wells containing peptides that have strong interactions with target proteins are dark blue and wells containing peptides that have weak or no interaction with target proteins are light blue or clear.
(§3) The purity of the target proteins used in the pin array assays, bovine βH crystallin, human γD crystallin, equine alcohol dehydrogenase (ADH) and porcine citrate synthase (CS) were determined to be >90% by SDS-PAGE. In addition, primary antibodies for each target protein were specific to that target protein and consequently contaminating proteins that may bind to the peptides will not be detected. Eighty-four sequential and overlapping peptide fragments corresponding to residues 1-175 of human αB crystallin were synthesized employing a simultaneous peptide synthesis strategy developed by Geysen, called Multipin Peptide Synthesis (Mimotopes, San Diego, Calif.). Geysen, Southeast Asian J Trop Med Public Health 21: 523-33, 1990; Chin et al., J Org Chem 62: 538-539, 1997. Peptides were immobilized on derivatized polyethylene pins arranged in a microtiter ELISA plate format. Each peptide was eight amino acids in length and consecutive peptides were offset by two amino acids. All peptides were bound covalently to the surface of the plastic pins. The first peptide was 1MDIAIHHP8 and the last peptide was 168PAVTAAPK175 for human αB crystallin.
(§4) Ghosh and Clark, Protein Sci 14: 684-95, 2005. […] The intensity of the blue color in the wells was measured at 450 nm using an ELISA plate-reader (BioTek, Winooski, Vt.). The intensity of the blue color (plotted on the X-axis) was a measure of the interaction between αB crystallin peptides (plotted on the Y-axis) and target proteins. To measure the effect of temperature on the interactions between interactive peptides and the target proteins, the target proteins were heated in a water-bath at 45° C. for fifteen minutes prior to use. Pin arrays are unable to differentiate between monomers, dimers or oligomers of target proteins that exist in solution. Instead, pin arrays are very sensitive detectors of interactions between individual peptides and the entire population (monomers, dimers or oligomers) of specific target proteins that may exist in solution under specific conditions. Each target protein was assayed two to five times. A single pin array was used for all experiments and no change in interactions was observed after more than thirty repetitions. The last three peptides of the protein pin array, 163REEKPAVT170, 165EKPAVTAA172, 167PAVTAAPK174, correspond to the epitope (163REEKPAVTAAPKK175) recognized by the primary antibody for human αB crystallin. A positive reaction is observed for these three peptides in the absence of human αB crystallin as the ligand due to direct binding of the anti-human αB crystallin antibody to these three peptides. The loss of efficiency for the pin array was measured using this assay. The loss of efficiency for the pin array was determined to be <5% by after more than 30 assays.
The pattern of absorbance at λ=450 nm when αB crystallin peptides were assayed with unheated and pre-heated CS was similar to the absorbance pattern obtained with unheated and pre-heated βH/γD crystallin and ADH (FIG. 18). […]

The target in experiment [2] is T2, equine alcohol dehydrogenase (ADH) (Equus caballus, UniProt P00327).
T2 construct: purchased Sigma-Aldrich, MO 05646
Kind of experiment: αB crystallin protein pin array with alcohol dehydrogenase. To be noted: ADH as ligand in the pin array.
Text: as §1, §2, §3, §4
The pattern of absorbance at k=450 nm when αB crystallin peptides were assayed with unheated and pre-heated ADH was similar to the absorbance pattern obtained with unheated and pre-heated βH/γD crystallin (FIG. 17). […]

The target in a further experiment is T3, human γD crystallin (Homo sapiens, UniProt P07320).
T3 construct: made in house
T3 sequence (P07320 1-174): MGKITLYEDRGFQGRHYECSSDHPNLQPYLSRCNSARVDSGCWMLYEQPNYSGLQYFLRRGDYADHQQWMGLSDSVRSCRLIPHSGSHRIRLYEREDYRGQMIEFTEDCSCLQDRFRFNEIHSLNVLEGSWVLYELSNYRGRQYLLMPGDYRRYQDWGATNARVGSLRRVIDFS
Kind of experiment: αB crystallin protein pin array with γD crystallin. To be noted: unheated γD crystallin; similar maxima pre-heated 45° C.
Text: as §1, §2, §3, §4
When βH crystallin was replaced with γD crystallin, a native protein constituent of lens cytoplasm from the same gene family as the β crystallins, as the ligand in the pin array, twelve interactive sequences were identified (FIG. 14: striped bars). […]

T2 sequence (P00327 whole entry): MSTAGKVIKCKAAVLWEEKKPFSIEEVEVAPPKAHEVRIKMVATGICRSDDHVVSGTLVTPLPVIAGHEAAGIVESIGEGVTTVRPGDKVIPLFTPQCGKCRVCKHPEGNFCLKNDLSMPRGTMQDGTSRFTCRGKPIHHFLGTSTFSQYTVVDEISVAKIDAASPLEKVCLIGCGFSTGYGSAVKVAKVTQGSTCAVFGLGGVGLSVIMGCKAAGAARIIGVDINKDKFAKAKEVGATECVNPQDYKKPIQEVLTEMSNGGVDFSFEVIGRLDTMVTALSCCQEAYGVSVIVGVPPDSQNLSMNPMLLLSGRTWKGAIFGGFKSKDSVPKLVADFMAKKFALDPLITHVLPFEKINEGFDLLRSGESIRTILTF

Turning to FSVNLDVK [Peptide 38], in experiment [1], the “absorbance at 450 nm, interaction with CS” value is “absorbance maxima”. Moreover, in experiment [2], the “absorbance at 450 nm, interaction with ADH” value is recorded as “Maximum absorbances”. Besides, the “absorbance at 450 nm, interaction with γD crystallin” value with human γD crystallin is given as “maximum absorbances”.
For LTITSSLS [Peptide 66] the same measures were “absorbance maxima”, “Maximum absorbances” and “maximum absorbances”.
For WIRRPFFP [Peptide 5] the same measures were “absorbance maxima”, “Maximum absorbances” and “maximum absorbances”.
